Experimental data from article PMC6595629, “Continuous Culture Adaptation of Methylobacterium extorquens AM1 and TK 0001 to Very High Methanol Concentrations” (Frontiers in Microbiology, 2019).

How the values were obtained:
[1] = target: T1, MetY (O-acetyl-L-homoserine sulfhydrylase) (Methylorubrum extorquens, UniProt C5ARH8); assay: coupled acetic acid assay (NADH oxidation, […] nm); format: biochemical; settings: pH 7.4, room temperature; co-substrate O-acetyl-L-homoserine saturating
T1 construct: full-length, N-terminal 6xHis tag, modified pET22b(+), E. coli BL21(DE3), purified; printed primers translate to N-terminus MHHHHHHSDQTPASVY and C-terminus TLARAA

purified protein = substrate: CC(=O)OCC[C@H](N)C(=O)O; assay: purified protein; format: biochemical, Methylorubrum extorquens; settings: pH 7.4, room temperature, other substrate saturating (sulfide or methanol; which one is not given)

Molecule: S [Sodium sulfide]
- Km [1]: 800 ± 200 µM

B1: MetY (O-acetyl-L-homoserine sulfhydrylase) (Methylorubrum extorquens AM1) (protein)
chain: MTDRQPGFNTLAIHAGATPDPATGARATPIYQTTSFVFDDVDHAASLFGLQAFGNIYTRITNPTNAVLEERIAALEGGTAALAVASGHAAEFLTLHALMQPGDEFIAANKLYGGSINQFNHSYKNFGWQVVWADTDDPDSFERAITPRTKAIFCESIANPGGVITDIAALSVIAKRHNIPLIVDNTMATPYLIKPFEHGADIVVHSATKFLGGHGNSIGGLIVDGGTFQWQGDARYPMLSEPRPEYAGMVLAETFGNFGFAIAVRVLSLRDLGPSLSPFNAFLILNGIETLPLRMQRHSDNALKVATFLKNHANVDWVSYPGLESDRYHALAQRYTPKGAGAVFTFGLKGGYEAGVKLVSNLQLFSHLANIGDTRSLVIHPASTTHRQLTDEQKRAAGAGPEVVRLSIGIEDAQDLIDDLDAALRA
notes: full-length, N-terminal 6xHis tag, modified pET22b(+), E. coli BL21(DE3), purified; printed primers translate to N-terminus … and C-terminus TLARAA
- Km (purified protein): 1300 ± 200 µM
- kcat (purified protein): 2.32 ± 0.12 s⁻¹
- kcat/Km (purified protein): 1850 M⁻¹ s⁻¹
